Test results published in patent publication EP1736482A1.

Assays:
[1] = biological target: 4-1BB on CD3-stimulated human T lymphocytes (PBMC) (human) (UniProt Q07011); experiment: flow cytometry on CD3-stimulated PBMC, PE-conjugated antibody
[2] = biological target: 4-1BB on CD3-stimulated human T lymphocytes (PBMC) (human) (UniProt Q07011); experiment: cell-based or functional assay
[3] = biological target: 4-1BB on CD3-stimulated human T lymphocytes (PBMC) (human) (UniProt Q07011); experiment: flow cytometry on CD3-stimulated PBMC, ligand at 10 µg/ml revealed by PE-conjugated streptavidine
[4] = biological target: recombinant human 4-1BB-Fc chimera (R&D Systems) (human) (UniProt Q07011); experiment: SPR (BIAcore 2000), 4-1BB-Fc coupled to CM5 chip, ligand in flow, 25°C
Chain of recombinant human 4-1BB-Fc chimera (R&D Systems) (human) (Q07011 24-186, change not shown): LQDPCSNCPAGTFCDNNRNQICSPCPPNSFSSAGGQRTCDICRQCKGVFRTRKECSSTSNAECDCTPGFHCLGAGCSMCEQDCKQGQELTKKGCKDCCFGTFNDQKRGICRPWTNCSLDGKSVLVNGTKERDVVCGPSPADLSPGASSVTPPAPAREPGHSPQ

Chain of 4-1BB on CD3-stimulated human T lymphocytes (PBMC) (human) (Q07011 24-255): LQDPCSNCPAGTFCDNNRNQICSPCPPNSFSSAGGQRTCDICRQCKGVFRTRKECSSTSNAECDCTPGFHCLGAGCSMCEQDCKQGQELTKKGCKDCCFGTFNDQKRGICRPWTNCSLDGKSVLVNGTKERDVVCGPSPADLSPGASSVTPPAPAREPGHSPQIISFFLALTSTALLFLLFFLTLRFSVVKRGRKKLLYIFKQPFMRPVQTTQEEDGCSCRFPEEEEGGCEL

Question: “PE-conjugated anti 4-1BB mAb (clone 4B4-1, BD Biosciences) (antibody)” was tested. Which percentage of 4-1BB positive activated T cells stained [1] did it give?
Answer: 64%

Question: Which results are given for “WT AviTag-4-1BBL (trimeric recombinant human 4-1BBL extracellular domain with N-terminal AviTag, produced in E. coli and refolded) (from UniProt P41273 50-254) (ligand)”?
Answer: inhibition of the proliferation of CD3-stimulated PBMC (tritiated thymidine incorporation) [2]: 70%; percentage of 4-1BB positive activated T cells stained [3]: 60%

Question: What does the source list for “C51S AviTag-4-1BBL (from UniProt P41273 50-254) (ligand)”?
Answer: Kd [4]: 2.3 nM; koff [4]: 0.00052 s⁻¹; kon [4]: 230000 M⁻¹ s⁻¹
